Reference: patent publication US12186374B2 (Sanofi-Aventis Deutschland GmbH, priority 2014, dated 2025)

Legend:
[1] = test system: patients with Type 2 diabetes mellitus (T2DM); test: Pen-related event questionnaire (Example 2); settings: on-treatment period
patients with T2DM [2] = test: Average 7-point SMPG change from baseline to Week 30 (Example 3); assay type: in vivo, human; settings: mITT population
Source text: In yet another aspect of the present invention, the composition or combination as described herein can be used for improving average 7-point SMPG profile. Self-monitored plasma glucose (SMPG)”, as used herein, is in particular the “7-point Self Monitored Plasma Glucose”. “7-point Self Monitored Plasma Glucose” in particular refers to the measurement of plasma glucose seven times a day and calculation of the average plasma glucose concentration therefrom. The “7-point Self Monitored Plasma Glucose” value is in particular an average plasma glucose concentration including fasting and postprandial conditions. In particular, measurements of plasma glucose concentration are performed pre-breakfast, post-breakfast (e.g. 2-hour post-breakfast), pre-lunch, post-lunch (e.g. 2-hour post-lunch), pre-dinner, post-dinner (e.g. 2-hour post-dinner) and at bed-time. The treatment by the combination of the present invention, as described herein, can improve the self-monitored plasma glucose.
The 7-point SMPG profile should be measured at the following 7 points: pre-prandial and 2 hours postprandial for breakfast, lunch, dinner and at bedtime. Two hours postprandial (breakfast, lunch and dinner) is defined as 2 hours after the start of the meal.
The patients are requested to perform 7-point SMPG profile measurement over a single 24-hour period on 2 Different Days in the Week Before V6 (Week 0), V15 (Week 12), and V21 (week 30, end of treatment assessment visit). All SMPG values measured on these days will be recorded in diary and transferred into the e-CRF.
(§1) Similar MMRM method or analysis of covariance (ANCOVA) was applied on continuous secondary efficacy endpoints and the Cochran-Mantei-Haenszel method stratified by randomization strata was applied for categorical efficacy endpoints.

[3] = test system: patients with Type 2 diabetes mellitus (T2DM); test: Body weight change from baseline to Week 30 (Example 2); assay type: in vivo, human
Source text: (§2) Body weight should be obtained with the patient wearing undergarments or very light clothing and no shoes, and with an empty bladder. The same scale should be used throughout the study, and calibrated on a regular basis as recommended by the manufacturer.
Similar MMRM method or ANCOVA was applied on continuous secondary efficacy endpoints and Cochran-Mantei-Haenszel method stratified by randomization strata was applied on categorical efficacy endpoints.

patients with T2DM [4] = assay type: in vivo, human; settings: Example 3
Source text: as §1

[5] = test system: patients with Type 2 diabetes mellitus (T2DM); test: Increased calcitonin reported on AE form (Example 2); design: Patients with TEAE of increased calcitonin: dose or concentration left out as unconfirmed
[6] = test system: patients with Type 2 diabetes mellitus (T2DM); test: Pancreatic events adjudicated by PSAC (Example 2)
[7] = test system: patients with Type 2 diabetes mellitus (T2DM); test: Events adjudicated as allergic reaction by ARAC (Example 2); assay type: in vivo, human
Source text: The mission of the ARAC will be to adjudicate, in a timely manner, all allergic, or possible allergic events.
In case a patient experiences an allergic reaction or an allergic-like reaction this has to be reported as an adverse event and recorded in the e-CRF on the specific AE form for suspected allergic event. Additional information is collected on specific allergic reaction complementary form. Allergic reaction or possible allergic reaction will be adjudicated by the ARAC (Section 5.4.2).
The number (%) of patients with events adjudicated as allergic reactions by ARAC and with events adjudicated by ARAC as possibly related to the IMP will be summarized by treatment group. All the allergic events reported by the investigators on the AE form for suspected allergic event and its associated complementary forms (confirmed or not confirmed by ARAC) will be listed.

[8] = test system: patients with Type 2 diabetes mellitus (T2DM); test: ALT increase reported on AE form (Example 2); settings: on-treatment period
patients with T2DM [9] = test: Standardized meal test: 2-hour glucose excursion and 2-hour PPG (Example 3); assay type: in vivo, human
Method: Patients will undergo a standardized meal challenge to assess fasting and postprandial glucose (central laboratory), as well as plasma glucose excursion.
The standardized meal contains approximately 600 kcal and is composed of 50 to 55% carbohydrate, 15 to 20% protein and 25 to 30% fat.
On the day of the standardized meal test, the patients will come to the investigational site in the morning, in fasting conditions for at least 8 hours and must not eat any food or drink, except water, before the scheduled standardized meal test. […] Patient in insulin glargine group will inject their insulin glargine at their usual injection time.
The standardized meal for all patients should be consumed within a 15-minute period. Blood for plasma glucose is drawn 5 times: • 30 minutes prior to the start of the meal and before IMP administration if the IMP is injected before breakfast; • Just before the start of the standardized meal (0 minute), • 30 minutes after the start of the standardized meal, • 60 minutes after the start of the standardized meal, • 120 minutes after the start of the standardized meal.
as §1

patients with T2DM [10] = test: Body weight change from baseline to Week 30 (Example 3); assay type: in vivo, human
Source text: as §2, §1

[11] = on-treatment period, Safety population
[12] = standardized meal test, ANCOVA, mITT population
[13] = standardized meal test, mITT population

With “Gly(A21)-Arg(B31)-Arg(B32)-human insulin [Insulin Glargine]” as the substance, how does the “Patients reporting pen-related events, %” value ([1]; Example 2) read?
The value was 2.1%.

What about the “Patients reporting pen-related events, number” value ([1]; Example 2) of the same substance?
The value was 10 patients.

What about the “Patients with events reported in pen-related event questionnaire: Any pen-related events” value ([1]; Safety population) of the same substance?
Its value is 10 (2.1%) Number (%).

What about the “Pen-related events: Associated with a clinical event” value ([1]; Safety population) of the same substance?
Its value is 0 Number (%).

What about the “Pen-related events: Not associated with a clinical event” value ([1]; Safety population) of the same substance?
The value was 10 (2.1%) Number (%).

What about the “Average of 7-point SMPG, change from baseline to Week 30, LS Mean (SE)” value (patients with T2DM [2]; MMRM) of the same substance?
Its value is −0.60 (0.130) mmol/L.

What about the “Average of 7-point SMPG at Week 30, Mean (SD)” value (patients with T2DM [2]) of the same substance?
The value was 8.62 (1.74) mmol/L.

What about the “Average of 7-point SMPG at Week 30, Median” value (patients with T2DM [2]) of the same substance?
The value was 8.26 mmol/L.

What about the “LS mean body weight change from baseline to Week 30” value ([3]; Example 2) of the same substance?
The value was “+1.10 kg”.

And the “Body weight, change from baseline to Week 30, LS Mean (SE)” value ([3]; MMRM, mITT population)?
The value was −1.11 (0.183) kg.

What about the “Body weight, Week 30, Mean (SD)” value ([3]; mITT population) of the same substance?
The value was 90.68 (16.03) kg.

And the “Body weight, Week 30, Median” value ([3]; mITT population)?
Its value is 89.00 kg.

And the “Patients reaching HbA1c<7.0% with no body weight gain and no documented symptomatic hypoglycemia” value (patients with T2DM [4])?
The value was 9.0%.

What about the “Patients reaching HbA1c<7.0% at Week 30 with no documented symptomatic hypoglycemia” value (patients with T2DM [4]; 30-week treatment period) of the same substance?
Its value is 18.6%.

And the “Patients with TEAE of increased calcitonin” value ([5]; Example 2)?
The value was “One”.

And the “Events reported on the AE form for increased calcitonin (≥20 ng/L): Blood calcitonin increased” value [5, 11]?
Its value is 1 (0.2%) n (%).

And the “Patients with events reported on the AE form for increased calcitonin (≥20 ng/L): Any” value [5, 11]?
Its value is 1 (0.2%) n (%).

What about the “Cases of pancreatic cancer” value ([6]; Example 2) of the same substance?
The value was “One”.

And the “Pancreatic events positively adjudicated by PSAC: Acute on chronic pancreatitis” value [6, 11]?
Its value is 0 Number (%).

And the “Pancreatic events positively adjudicated by PSAC: Acute pancreatitis” value [6, 11]?
Its value is 0 Number (%).

And the “Pancreatic events positively adjudicated by PSAC: Chronic pancreatitis” value [6, 11]?
The value was 0 Number (%).

And the “Pancreatic events positively adjudicated by PSAC: Unknown pancreatitis” value [6, 11]?
Its value is 0 Number (%).

And the “Patients with pancreatic events positively adjudicated by PSAC: Any with “Yes” for pancreatitis by PSAC” value [6, 11]?
The value was 0 Number (%).

What about the “Allergic reaction by ARAC: All; Anaphylactic reaction” value ([7]; in vivo) of the same substance?
Its value is 0 Number (%).

What about the “Allergic reaction by ARAC: All; Angioedema” value ([7]; in vivo) of the same substance?
The value was 0 Number (%).

What about the “Allergic reaction by ARAC: All; Other allergic reaction; Conjunctivitis allergic” value ([7]; in vivo) of the same substance?
The value was 1 (0.2%) Number (%).

What about the “Allergic reaction by ARAC: All; Other allergic reaction; Rhinitis allergic” value ([7]; in vivo) of the same substance?
The value was 2 (0.4%) Number (%).

What about the “Allergic reaction by ARAC: Not related to IMP; Angioedema” value ([7]; in vivo) of the same substance?
The value was 0 Number (%).

And the “Allergic reaction by ARAC: Not related to IMP; Any category; Any event” value ([7]; in vivo)?
The value was 3 (0.6%) Number (%).

What about the “Allergic reaction by ARAC: Not related to IMP; Other allergic reaction; Conjunctivitis allergic” value ([7]; in vivo) of the same substance?
Its value is 1 (0.2%) Number (%).

And the “Allergic reaction by ARAC: Not related to IMP; Other allergic reaction; Rhinitis allergic” value ([7]; in vivo)?
The value was 2 (0.4%) Number (%).

What about the “Allergic reaction by ARAC: Possibly related to IMP; Anaphylactic reaction” value ([7]; in vivo) of the same substance?
The value was 0 Number (%).

And the “Allergic reaction by ARAC: Possibly related to IMP; Any category; Any event” value ([7]; in vivo)?
Its value is 0 Number (%).

And the “Allergic reactions possibly related to IMP (ARAC), number of patients” value ([7]; in vivo)?
The value was “none”.

And the “Patients with events adjudicated as allergic reaction by ARAC: All; Any category; Any event” value ([7]; in vivo)?
Its value is 3 (0.6%) Number (%).

What about the “Allergic reaction by ARAC: All; Urticaria (hives); Urticaria” value [7, 11] of the same substance?
Its value is 1 (0.2%) Number (%).

And the “Allergic reaction by ARAC: Not related to IMP; Urticaria (hives); Urticaria” value [7, 11]?
The value was 1 (0.2%) Number (%).

And the “Allergic reaction by ARAC: Possibly related to IMP; Urticaria (hives); Urticaria” value [7, 11]?
The value was 0 Number (%).

And the “Patients with AE of ALT increase” value ([8]; Example 2)?
Its value is 2 patients.

And the “Events reported on the AE form for ALT increase: Alanine aminotransferase increased” value ([8]; Safety population)?
Its value is 2 (0.4%) n (%).

What about the “Patients with events reported on the AE form for ALT increase: Any” value ([8]; Safety population) of the same substance?
The value was 2 (0.4%) n (%).

And the “2-hour PPG, LS mean change” value (patients with T2DM [9]; Example 3)?
Its value is -1.39 mmol/L.

And the “2-hour glucose excursion, LS mean change from baseline to Week 30” value (patients with T2DM [9]; Example 3, standardized liquid breakfast meal)?
The value was -0.47 mmol/L.

What about the “2-hour plasma glucose excursion, change from baseline to Week 30 (LOCF), LS Mean (SE)” value (patients with T2DM [9]; [12]) of the same substance?
The value was −0.47 (0.274) mmol/L.

What about the “2-hour postprandial plasma glucose change from baseline to Week 30 (LOCF), LS Mean (SE)” value (patients with T2DM [9]; [12]) of the same substance?
Its value is −1.39 (0.310) mmol/L.

And the “2-hour plasma glucose excursion at Week 30 (LOCF), Mean (SD)” value (patients with T2DM [9]; [13])?
The value was 6.71 (3.34) mmol/L.

What about the “2-hour plasma glucose excursion at Week 30 (LOCF), Median” value (patients with T2DM [9]; [13]) of the same substance?
The value was 6.40 mmol/L.

What about the “2-hour plasma glucose excursion, change from baseline to Week 30 (LOCF), Mean (SD)” value (patients with T2DM [9]; [13]) of the same substance?
The value was −0.44 (3.34) mmol/L.

What about the “2-hour plasma glucose excursion, change from baseline to Week 30 (LOCF), Median” value (patients with T2DM [9]; [13]) of the same substance?
The value was -0.30 mmol/L.

What about the “2-hour postprandial plasma glucose at Week 30 (LOCF), Mean (SD)” value (patients with T2DM [9]; [13]) of the same substance?
Its value is 13.41 (3.83) mmol/L.

And the “2-hour postprandial plasma glucose at Week 30 (LOCF), Median” value (patients with T2DM [9]; [13])?
Its value is 13.10 mmol/L.

And the “2-hour postprandial plasma glucose change from baseline to Week 30 (LOCF), Mean (SD)” value (patients with T2DM [9]; [13])?
Its value is −1.56 (4.20) mmol/L.

What about the “2-hour postprandial plasma glucose change from baseline to Week 30 (LOCF), Median” value (patients with T2DM [9]; [13]) of the same substance?
The value was -1.50 mmol/L.

What about the “Body weight, LS mean change from baseline to Week 30” value (patients with T2DM [10]; Example 3) of the same substance?
Its value is “+0.70 kg”.

And the “Body weight change from baseline to Week 30, LS Mean (SB)” value (patients with T2DM [10]; MMRM, mITT population)?
The value was 0.70 (0.178) kg.

What about the “Body weight at Week 30, Mean (SD)” value (patients with T2DM [10]; mITT population) of the same substance?
The value was 87.96 (15.08) kg.

What about the “Body weight at Week 30, Median” value (patients with T2DM [10]; mITT population) of the same substance?
Its value is 85.90 kg.
